The results in this text go back to US20090304686A1 (UNIVERSOTAIR MEDISCH CENTRUM UTRECHT, published 2009).

The target of assay [1] is hLAIR-1-CD3ζ chimera on 2B4 NFAT-GFP reporter cells (human, UniProt Q6GTX8 22-165). The assay can be described thus: cell-based or functional assay.
In assay [2] the target is T1, human LAIR-1 (hLAIR-1a) expressed on cells (human, UniProt Q6GTX8 22-287).
T1 construct: whole, on cells; In the precipitation with collagen I fibrils it stood in cell lysates (transfected K562, PBMC)
T1 sequence (looked up): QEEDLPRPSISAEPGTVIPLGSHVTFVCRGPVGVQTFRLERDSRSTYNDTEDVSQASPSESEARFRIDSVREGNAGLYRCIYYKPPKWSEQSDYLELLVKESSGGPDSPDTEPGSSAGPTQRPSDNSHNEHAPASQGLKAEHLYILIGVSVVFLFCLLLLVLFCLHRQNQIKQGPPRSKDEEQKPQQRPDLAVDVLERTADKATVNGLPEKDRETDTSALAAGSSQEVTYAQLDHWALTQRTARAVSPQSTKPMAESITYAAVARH
Description: adhesion of K562 cells expressing hLAIR-1 to immobilized trimeric peptide. The source says: A: K562 cell adhesion assay. […] Percentage of adhering cells relative to input is shown.

For assay [3], the target named is T2, human collagen XVII (full length, on transfected Ba/F3 or K562 cells, or endogenous on HT29 cells) (human, UniProt Q9UMD9 1-1497).
T2 construct: whole, on cells; also called transmembrane collagen XVII
T2 sequence (looked up): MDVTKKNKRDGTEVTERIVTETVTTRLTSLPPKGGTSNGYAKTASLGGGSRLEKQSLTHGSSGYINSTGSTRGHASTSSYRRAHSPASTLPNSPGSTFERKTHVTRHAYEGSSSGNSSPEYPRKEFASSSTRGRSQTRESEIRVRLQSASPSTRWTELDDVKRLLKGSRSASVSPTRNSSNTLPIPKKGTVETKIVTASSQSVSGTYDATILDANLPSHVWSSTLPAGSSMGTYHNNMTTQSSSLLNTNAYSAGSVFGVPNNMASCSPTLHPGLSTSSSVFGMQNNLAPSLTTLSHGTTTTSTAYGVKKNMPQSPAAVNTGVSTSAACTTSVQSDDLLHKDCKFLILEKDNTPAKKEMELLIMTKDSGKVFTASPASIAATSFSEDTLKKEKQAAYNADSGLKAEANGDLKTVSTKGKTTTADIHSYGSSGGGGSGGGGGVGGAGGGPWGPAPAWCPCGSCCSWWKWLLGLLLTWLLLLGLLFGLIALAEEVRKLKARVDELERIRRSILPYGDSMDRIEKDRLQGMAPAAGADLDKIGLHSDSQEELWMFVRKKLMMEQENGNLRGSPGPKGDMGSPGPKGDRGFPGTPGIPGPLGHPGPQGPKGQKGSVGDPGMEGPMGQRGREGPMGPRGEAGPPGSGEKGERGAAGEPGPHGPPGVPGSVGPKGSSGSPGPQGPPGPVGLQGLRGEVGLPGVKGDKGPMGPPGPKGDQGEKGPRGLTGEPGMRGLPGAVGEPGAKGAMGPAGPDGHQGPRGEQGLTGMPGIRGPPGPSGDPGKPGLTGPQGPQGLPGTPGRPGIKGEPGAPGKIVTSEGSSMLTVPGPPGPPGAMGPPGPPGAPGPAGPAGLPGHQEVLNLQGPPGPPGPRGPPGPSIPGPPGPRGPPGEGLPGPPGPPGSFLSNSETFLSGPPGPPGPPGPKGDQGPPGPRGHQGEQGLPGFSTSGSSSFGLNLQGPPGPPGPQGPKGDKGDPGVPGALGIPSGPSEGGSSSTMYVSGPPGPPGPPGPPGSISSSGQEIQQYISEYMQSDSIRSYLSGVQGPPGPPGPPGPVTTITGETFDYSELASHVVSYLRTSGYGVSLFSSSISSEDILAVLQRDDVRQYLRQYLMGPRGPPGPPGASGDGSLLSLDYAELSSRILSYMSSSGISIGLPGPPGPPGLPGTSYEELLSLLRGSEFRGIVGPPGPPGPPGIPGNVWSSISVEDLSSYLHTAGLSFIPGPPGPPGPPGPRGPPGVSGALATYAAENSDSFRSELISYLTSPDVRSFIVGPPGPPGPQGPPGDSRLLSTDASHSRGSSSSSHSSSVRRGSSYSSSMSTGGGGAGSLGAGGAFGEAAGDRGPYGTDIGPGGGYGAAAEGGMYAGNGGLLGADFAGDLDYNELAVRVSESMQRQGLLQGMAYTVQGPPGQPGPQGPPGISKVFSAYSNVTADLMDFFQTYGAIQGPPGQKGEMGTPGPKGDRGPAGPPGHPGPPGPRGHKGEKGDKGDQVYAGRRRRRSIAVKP
Description: flow cytometry [C].

In assay [4] the target is T3, collagen III (purified, Sigma; acid-soluble human collagen type III in BIAcore) (human, UniProt P02461 154-1221).
T3 construct: Human is stated for BIAcore and the immunoprecipitation; also called hcollagen III
T3 sequence (looked up): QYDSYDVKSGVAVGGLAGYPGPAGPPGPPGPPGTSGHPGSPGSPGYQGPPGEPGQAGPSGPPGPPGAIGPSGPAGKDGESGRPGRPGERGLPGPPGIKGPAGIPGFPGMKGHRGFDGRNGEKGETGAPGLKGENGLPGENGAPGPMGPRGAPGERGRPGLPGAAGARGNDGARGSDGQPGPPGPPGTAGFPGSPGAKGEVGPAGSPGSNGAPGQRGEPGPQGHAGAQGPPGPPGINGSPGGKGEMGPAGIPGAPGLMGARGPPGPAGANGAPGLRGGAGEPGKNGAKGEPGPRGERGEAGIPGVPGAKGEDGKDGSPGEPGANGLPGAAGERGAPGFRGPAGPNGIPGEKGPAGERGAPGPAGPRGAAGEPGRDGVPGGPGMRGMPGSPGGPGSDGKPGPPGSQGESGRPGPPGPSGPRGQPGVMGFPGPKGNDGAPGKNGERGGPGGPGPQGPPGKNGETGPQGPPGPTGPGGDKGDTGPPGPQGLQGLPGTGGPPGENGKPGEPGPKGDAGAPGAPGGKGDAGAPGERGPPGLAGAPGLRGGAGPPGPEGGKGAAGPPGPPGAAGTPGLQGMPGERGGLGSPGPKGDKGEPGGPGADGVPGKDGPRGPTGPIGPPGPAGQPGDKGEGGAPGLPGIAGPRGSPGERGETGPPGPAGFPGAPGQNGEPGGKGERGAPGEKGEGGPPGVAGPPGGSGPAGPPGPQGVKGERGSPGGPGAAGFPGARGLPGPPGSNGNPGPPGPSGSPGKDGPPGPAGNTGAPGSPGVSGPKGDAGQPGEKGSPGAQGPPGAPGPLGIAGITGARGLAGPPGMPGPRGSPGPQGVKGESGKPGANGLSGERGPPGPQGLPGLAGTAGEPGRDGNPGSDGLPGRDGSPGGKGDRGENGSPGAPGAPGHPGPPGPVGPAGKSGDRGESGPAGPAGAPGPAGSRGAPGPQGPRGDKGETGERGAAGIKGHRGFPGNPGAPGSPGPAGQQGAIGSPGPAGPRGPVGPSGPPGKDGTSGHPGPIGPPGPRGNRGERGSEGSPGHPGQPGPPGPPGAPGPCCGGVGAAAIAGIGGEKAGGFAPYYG
The assay can be described thus: immunoprecipitation, blot with anti-collagen III.

Assay [5] has as its target T4, full-length mouse collagen XXIII with C-terminal His6- and FLAG-tag (transiently expressed on 293T cells) (mouse, UniProt Q8K4G2 1-532).
T4 construct: whole, on cells; not shown: C-terminal His6- and FLAG-tag
Description: flow cytometry on 293T cells transiently transfected with HIS-tagged collagens. (In general: A flow cytometer gives signals particle by particle.)

Assay [6] deals with T5, mouse collagen XVII (on LAIR-ligand-positive Ba/F3 clones) (mouse, UniProt Q07563 1-1470).
T5 construct: whole, on cells; The precipitated spot was about 140 kDa; also called mLAIR-ligand
T5 sequence (Q07563 whole entry): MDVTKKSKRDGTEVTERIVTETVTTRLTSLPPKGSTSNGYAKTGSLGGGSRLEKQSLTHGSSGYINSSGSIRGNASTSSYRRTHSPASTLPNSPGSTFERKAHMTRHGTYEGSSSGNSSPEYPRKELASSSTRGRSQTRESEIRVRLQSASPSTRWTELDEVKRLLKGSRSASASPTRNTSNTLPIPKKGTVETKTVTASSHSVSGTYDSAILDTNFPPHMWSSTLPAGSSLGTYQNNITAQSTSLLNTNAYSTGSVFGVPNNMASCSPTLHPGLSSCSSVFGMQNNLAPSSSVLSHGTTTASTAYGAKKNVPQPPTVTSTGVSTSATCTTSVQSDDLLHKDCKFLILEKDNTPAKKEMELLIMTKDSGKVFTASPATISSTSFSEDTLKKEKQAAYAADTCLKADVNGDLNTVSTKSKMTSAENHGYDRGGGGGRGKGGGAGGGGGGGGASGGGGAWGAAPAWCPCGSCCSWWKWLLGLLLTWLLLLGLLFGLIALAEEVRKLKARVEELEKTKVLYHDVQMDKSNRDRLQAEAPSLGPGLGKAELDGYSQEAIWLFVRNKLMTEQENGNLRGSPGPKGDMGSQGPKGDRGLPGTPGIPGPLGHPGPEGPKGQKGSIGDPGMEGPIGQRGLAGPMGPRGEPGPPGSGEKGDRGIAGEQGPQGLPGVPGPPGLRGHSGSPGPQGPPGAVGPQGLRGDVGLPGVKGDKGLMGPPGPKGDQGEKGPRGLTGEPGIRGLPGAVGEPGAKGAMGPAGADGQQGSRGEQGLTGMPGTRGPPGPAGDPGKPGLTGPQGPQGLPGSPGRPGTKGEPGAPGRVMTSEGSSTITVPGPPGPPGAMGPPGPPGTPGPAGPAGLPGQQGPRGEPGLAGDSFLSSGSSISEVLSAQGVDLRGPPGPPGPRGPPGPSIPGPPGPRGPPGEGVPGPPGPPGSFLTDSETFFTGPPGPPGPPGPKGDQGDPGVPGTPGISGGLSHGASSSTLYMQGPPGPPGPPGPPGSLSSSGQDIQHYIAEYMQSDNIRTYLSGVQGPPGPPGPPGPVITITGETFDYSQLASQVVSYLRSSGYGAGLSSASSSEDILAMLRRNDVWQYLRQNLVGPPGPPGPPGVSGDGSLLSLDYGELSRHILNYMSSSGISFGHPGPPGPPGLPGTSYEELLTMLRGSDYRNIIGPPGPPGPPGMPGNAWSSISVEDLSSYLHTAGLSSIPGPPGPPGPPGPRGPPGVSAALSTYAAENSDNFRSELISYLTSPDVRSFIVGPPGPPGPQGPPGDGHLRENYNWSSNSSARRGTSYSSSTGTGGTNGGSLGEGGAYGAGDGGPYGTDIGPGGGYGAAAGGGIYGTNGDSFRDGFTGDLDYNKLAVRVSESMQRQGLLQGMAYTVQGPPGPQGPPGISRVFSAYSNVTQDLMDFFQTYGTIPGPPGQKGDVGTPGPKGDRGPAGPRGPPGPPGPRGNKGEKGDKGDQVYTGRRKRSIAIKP
Description: flow cytometry; immunoprecipitation with mLAIR-1-IgG and 2D blot of surface-biotinylated proteins [B].

Assay [7] deals with T2, human collagen XVII (full length, on …). The assay can be described thus: flow cytometry.

T4 sequence (Q8K4G2 whole entry): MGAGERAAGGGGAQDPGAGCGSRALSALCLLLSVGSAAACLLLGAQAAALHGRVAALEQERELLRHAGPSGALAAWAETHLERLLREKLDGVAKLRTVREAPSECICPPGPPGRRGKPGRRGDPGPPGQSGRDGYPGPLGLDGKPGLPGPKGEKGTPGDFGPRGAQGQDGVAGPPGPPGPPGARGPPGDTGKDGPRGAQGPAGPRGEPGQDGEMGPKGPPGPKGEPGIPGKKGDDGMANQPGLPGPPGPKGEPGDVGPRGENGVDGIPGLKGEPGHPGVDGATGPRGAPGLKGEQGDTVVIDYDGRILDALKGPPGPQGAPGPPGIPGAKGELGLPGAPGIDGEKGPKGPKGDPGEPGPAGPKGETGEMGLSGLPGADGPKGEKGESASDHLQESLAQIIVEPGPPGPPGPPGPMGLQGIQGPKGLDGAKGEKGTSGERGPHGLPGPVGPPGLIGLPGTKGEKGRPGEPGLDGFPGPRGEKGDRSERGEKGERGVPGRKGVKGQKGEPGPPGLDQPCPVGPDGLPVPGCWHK

B1: Collagen III Toolkit peptide 44 (peptide)
peptide: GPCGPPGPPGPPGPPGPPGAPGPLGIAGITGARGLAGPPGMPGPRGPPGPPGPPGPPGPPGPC
modifications: O = hydroxyproline as printed; C-terminal amide (-NH2)
notes: Homotrimeric triple-helical peptide; also called III-44; collagen III peptide 44
Take B1: the “GFP expression of 2B4 NFAT-GFP reporter cells” value (“GFP expression” below) in assay [1] was > 10 % of cells GFP-positive. Also, in assay [2], the “percentage of adhering cells relative to input” value was over 10%.

B2: Collagen III Toolkit peptide 5 (peptide)
peptide: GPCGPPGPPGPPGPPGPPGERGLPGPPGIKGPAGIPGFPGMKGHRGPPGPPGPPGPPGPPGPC
modifications: O = hydroxyproline as printed; C-terminal amide (-NH2)
B2: the “GFP expression” value in assay [1] is > 10 % of cells GFP-positive.

B3: Collagen III Toolkit peptide 38 (peptide)
peptide: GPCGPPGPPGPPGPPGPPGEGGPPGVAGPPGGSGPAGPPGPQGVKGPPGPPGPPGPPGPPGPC
modifications: O = hydroxyproline as printed; C-terminal amide (-NH2)
notes: Homotrimeric triple-helical peptide; also called III-38; collagen III peptide 38
Regarding B3, the “GFP expression” value in assay [1] is > 10 % of cells GFP-positive. In addition, in assay [2], the “percentage of adhering cells relative to input” value was over 10%.

B4: Collagen III Toolkit peptide 1 (peptide)
peptide: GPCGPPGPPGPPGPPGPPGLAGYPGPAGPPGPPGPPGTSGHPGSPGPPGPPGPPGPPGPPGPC
modifications: O = hydroxyproline as printed; C-terminal amide (-NH2)
notes: Homotrimeric triple-helical peptide; also called III-1; collagen III peptide 1
B4: the “GFP expression” value in assay [1] is > 10 % of cells GFP-positive. The “percentage of adhering cells relative to input” value in assay [2] was over 10%.

B5: Collagen II Toolkit peptide 30 (peptide)
peptide: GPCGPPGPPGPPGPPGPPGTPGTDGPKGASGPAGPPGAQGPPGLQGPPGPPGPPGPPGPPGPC
modifications: O = hydroxyproline as printed; C-terminal amide (-NH2)
notes: Homotrimeric triple-helical peptide; also called II-30; human collagen II peptide 30
Regarding B5, the “GFP expression” value in assay [1] was > 10 % of cells GFP-positive. Besides, in assay [2], the “percentage of adhering cells relative to input” value was over 10%.

B6: Collagen II Toolkit peptide 1 (peptide)
peptide: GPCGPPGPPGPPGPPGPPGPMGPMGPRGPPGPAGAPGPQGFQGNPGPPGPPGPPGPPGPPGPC
modifications: O = hydroxyproline as printed; C-terminal amide (-NH2)
For B6, the “GFP expression” value in assay [1] is > 10 % of cells GFP-positive.

B7: Collagen III Toolkit peptide 32 (peptide)
peptide: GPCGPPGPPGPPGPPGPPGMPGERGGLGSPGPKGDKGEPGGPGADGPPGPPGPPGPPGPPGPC
modifications: O = hydroxyproline as printed; C-terminal amide (-NH2)
For B7, in assay [1], the “GFP expression” value is > 10 % of cells GFP-positive.

B8: mLAIR-1-IgG (mouse LAIR-1 fused to the Fc region of human IgG1) (Fc fusion, UniProt Q8BG84 22-144, looked up)
chain: QEGSLPDITIFPNSSLMISQGTFVTVVCSYSDKHDLYNMVRLEKDGSTFMEKSTEPYKTEDEFEIGPVNETITGHYSCIYSKGITWSERSKTLELKVIKENVIQTPAPGPTSDTSWLKTYSIY
notes: also called mouse LAIR-1-IgG fusion protein; not shown: Fc region of human IgG1
Turning to B8, the binding result in assay [3], in assay [4], in assay [5] and in assay [6] was “binds” throughout.

B9: Collagen II Toolkit peptide 49 (peptide)
peptide: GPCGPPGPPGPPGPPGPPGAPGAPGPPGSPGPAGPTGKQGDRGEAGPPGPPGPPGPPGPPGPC
modifications: O = hydroxyproline as printed; C-terminal amide (-NH2)
Take B9: in assay [1], the “GFP expression” value was > 10 % of cells GFP-positive.

B10: Collagen II Toolkit peptide 42 (peptide)
peptide: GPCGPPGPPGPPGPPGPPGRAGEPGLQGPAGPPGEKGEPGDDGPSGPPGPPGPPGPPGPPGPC
modifications: O = hydroxyproline as printed; C-terminal amide (-NH2)
On to B10, for which the “GFP expression” value in assay [1] was > 10 % of cells GFP-positive.

B11: rLAIR-1-IgG (rat LAIR-1 fused to the Fc region of human IgG1) (Fc fusion, UniProt P0C1X9 22-143, looked up)
chain: QEESLSDFTICAEPGPVIPQGNFITIVCSTSGEYDTVRLEKEGSTFMEKKTEPHGKQHRFRIGPVNETITGYYNCIFEKNYVWSQRSNDLQLKVIKENVTQGLAPGPSMTSDTSWLKTYSIH
notes: also called rat LAIR-1-IgG fusion protein; not shown: Fc region of human IgG1
With B11, the binding result in assay [7] and in assay [5] was “binds” each time.

B12: Collagen III Toolkit peptide 51 (peptide)
peptide: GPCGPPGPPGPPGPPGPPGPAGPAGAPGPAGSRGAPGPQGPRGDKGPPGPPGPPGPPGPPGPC
modifications: O = hydroxyproline as printed; C-terminal amide (-NH2)
notes: Homotrimeric triple-helical peptide; also called III-51; collagen III peptide 51
Turning to B12, the “GFP expression” value in assay [1] is > 10 % of cells GFP-positive. Also, in assay [2], the “percentage of adhering cells relative to input” value was over 10%.
